Changes are numbered by the printed parent chain. Names and notes keep the numbering of the source.
T1: YFP-FL-harmonin-ΔCter (human, UniProt Q9Y6N9-1 1-542)
T1 construct: Harmonin-a1 (USH1C), human, residues 1-542 of UniProt Q9Y6N9-1; also called ^YFPFL ΔCter; source: E. coli BL21 (DE3) Rosetta, purified (Glutathione Sepharose 4B, size-exclusion chromatography)
T1 sequence (looked up): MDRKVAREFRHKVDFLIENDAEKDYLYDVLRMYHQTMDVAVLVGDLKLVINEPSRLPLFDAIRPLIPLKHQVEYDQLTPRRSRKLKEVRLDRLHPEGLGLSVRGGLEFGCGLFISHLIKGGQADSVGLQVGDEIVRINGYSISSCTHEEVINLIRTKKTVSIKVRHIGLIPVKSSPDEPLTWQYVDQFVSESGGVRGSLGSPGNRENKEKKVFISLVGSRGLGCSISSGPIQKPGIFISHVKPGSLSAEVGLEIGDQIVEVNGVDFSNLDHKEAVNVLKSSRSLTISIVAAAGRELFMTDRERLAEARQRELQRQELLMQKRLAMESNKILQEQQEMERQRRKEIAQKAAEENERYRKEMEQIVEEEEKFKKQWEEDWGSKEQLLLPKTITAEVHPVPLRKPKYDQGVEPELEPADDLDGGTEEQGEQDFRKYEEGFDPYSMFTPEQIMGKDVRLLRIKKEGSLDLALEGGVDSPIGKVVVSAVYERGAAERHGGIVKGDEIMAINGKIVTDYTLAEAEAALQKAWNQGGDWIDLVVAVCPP

T2: YFP-Myosin 7a MF2 (human, UniProt Q13402-1 1702-2215)
T2 construct: Myosin 7a, human, MF2, residues 1702-2215 of UniProt Q13402-1; pET14-YFP vector; also called ^YFPM7a MF2; source: E. coli (BL21-AI, BL21 (DE3) Rosetta or BL21-Gold (DE3)), purified (Histrap, CaptoQ, gel filtration)
T2 sequence (looked up): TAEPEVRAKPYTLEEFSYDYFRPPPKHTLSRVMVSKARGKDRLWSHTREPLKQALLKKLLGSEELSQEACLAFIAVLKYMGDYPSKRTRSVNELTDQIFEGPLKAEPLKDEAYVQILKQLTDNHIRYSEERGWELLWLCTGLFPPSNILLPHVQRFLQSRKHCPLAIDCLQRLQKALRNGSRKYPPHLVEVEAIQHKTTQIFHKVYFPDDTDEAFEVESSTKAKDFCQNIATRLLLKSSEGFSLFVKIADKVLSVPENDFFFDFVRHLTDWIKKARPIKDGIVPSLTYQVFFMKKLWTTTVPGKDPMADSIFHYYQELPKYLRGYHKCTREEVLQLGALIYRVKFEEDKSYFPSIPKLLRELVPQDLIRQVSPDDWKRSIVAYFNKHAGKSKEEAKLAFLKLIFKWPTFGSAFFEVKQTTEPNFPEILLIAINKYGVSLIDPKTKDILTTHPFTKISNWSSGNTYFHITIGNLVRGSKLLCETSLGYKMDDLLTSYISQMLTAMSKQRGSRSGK

T3: YFP-Myosin 7b MF2 (human, UniProt Q6PIF6 1605-2116)
T3 construct: Myosin 7b, human, MF2, residues 1605-2116 of UniProt Q6PIF6; pET14-YFP vector; also called ^YFPM7b MF2; source: E. coli (BL21-AI, BL21 (DE3) Rosetta or BL21-Gold (DE3)), purified (Histrap, CaptoQ, gel filtration)
T3 sequence (looked up): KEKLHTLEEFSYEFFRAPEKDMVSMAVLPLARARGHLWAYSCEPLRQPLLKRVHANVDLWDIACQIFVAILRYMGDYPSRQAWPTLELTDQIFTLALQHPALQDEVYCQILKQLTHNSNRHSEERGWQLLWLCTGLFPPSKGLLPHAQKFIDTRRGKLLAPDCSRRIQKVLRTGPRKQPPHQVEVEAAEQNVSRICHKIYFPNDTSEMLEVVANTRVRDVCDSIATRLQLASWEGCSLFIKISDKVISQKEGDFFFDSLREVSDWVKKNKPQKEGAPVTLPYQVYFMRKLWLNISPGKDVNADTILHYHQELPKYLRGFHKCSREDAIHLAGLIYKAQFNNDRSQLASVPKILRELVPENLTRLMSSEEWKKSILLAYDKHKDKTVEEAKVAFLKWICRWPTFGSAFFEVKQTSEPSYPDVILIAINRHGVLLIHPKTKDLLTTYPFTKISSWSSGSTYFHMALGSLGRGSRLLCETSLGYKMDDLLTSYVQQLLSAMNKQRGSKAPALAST

T4: Harmonin NPDZ1 (GST removed, as used in ITC) (human, UniProt Q9Y6N9-1 1-197)
T4 construct: Harmonin-a1 (USH1C), human, residues 1-197 of UniProt Q9Y6N9-1; not shown: GST, N-terminal, cleaved
T4 sequence (looked up): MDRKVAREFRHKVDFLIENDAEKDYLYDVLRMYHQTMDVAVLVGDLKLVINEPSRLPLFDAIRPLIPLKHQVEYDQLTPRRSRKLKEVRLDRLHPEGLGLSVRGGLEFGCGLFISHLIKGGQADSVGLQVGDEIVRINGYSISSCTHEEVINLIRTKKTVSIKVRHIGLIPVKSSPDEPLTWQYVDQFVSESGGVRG

T5: Myosin 7b MF2 (human, UniProt Q6PIF6 1605-2116)
T5 construct: also called M7b MF2; Myo7b MF2; source: E. coli (BL21-AI, BL21 (DE3) Rosetta or BL21-Gold (DE3)), purified (Histrap, CaptoQ, gel filtration)
T5 sequence (looked up): T3 sequence (looked up)

T6: Myosin 7a MF2 (human, UniProt Q13402-1 1702-2215)
T6 construct: Myosin 7a, human, C-terminal MyTH4-FERM domain (MF2), residues 1702-2215 of UniProt Q13402-1; Thrombin site of the vector replaced by an SSG linker; also called M7a MF2; Myo7a MF2; source: E. coli (BL21-AI, BL21 (DE3) Rosetta or BL21-Gold (DE3)), purified (Histrap, CaptoQ, gel filtration)
T6 sequence (looked up): T2 sequence (looked up)

B1: Harmonin-a PDZ2-end (domain or fragment, human, UniProt Q9Y6N9-1 194-552, looked up)
chain: GVRGSLGSPGNRENKEKKVFISLVGSRGLGCSISSGPIQKPGIFISHVKPGSLSAEVGLEIGDQIVEVNGVDFSNLDHKEAVNVLKSSRSLTISIVAAAGRELFMTDRERLAEARQRELQRQELLMQKRLAMESNKILQEQQEMERQRRKEIAQKAAEENERYRKEMEQIVEEEEKFKKQWEEDWGSKEQLLLPKTITAEVHPVPLRKPKYDQGVEPELEPADDLDGGTEEQGEQDFRKYEEGFDPYSMFTPEQIMGKDVRLLRIKKEGSLDLALEGGVDSPIGKVVVSAVYERGAAERHGGIVKGDEIMAINGKIVTDYTLAEAEAALQKAWNQGGDWIDLVVAVCPPKEYDDELTFF
notes: Harmonin-a1 (USH1C), human, residues 194-552 of UniProt Q9Y6N9-1; also called PDZ2-end (isoA); source: E. coli BL21 (DE3) Rosetta, purified (Glutathione Sepharose 4B, size-exclusion chromatography)
B2: Harmonin-a PDZ3c (GST removed, as used in ITC and crystallisation) (domain or fragment, human, UniProt Q9Y6N9-1 428-552, looked up)
chain: QDFRKYEEGFDPYSMFTPEQIMGKDVRLLRIKKEGSLDLALEGGVDSPIGKVVVSAVYERGAAERHGGIVKGDEIMAINGKIVTDYTLAEAEAALQKAWNQGGDWIDLVVAVCPPKEYDDELTFF
notes: Harmonin-a1 (USH1C), human, residues 428-552 of UniProt Q9Y6N9-1; also called PDZ3c (isoA); HarA PDZ3c; not shown: GST, N-terminal, cleaved
B3: Harmonin-a PDZ3c F551V-F552V (domain or fragment, human, UniProt Q9Y6N9-1 428-552, looked up)
chain: B2 chain with F124V, F125V
notes: Harmonin-a1 (USH1C), human, residues 428-552 of UniProt Q9Y6N9-1; also called PDZ3c (isoA) F551V-F552V; source: E. coli BL21 (DE3) Rosetta, purified similarly as wild type
B4: YFP-Harmonin NPDZ1 (domain or fragment, human, UniProt Q9Y6N9-1 1-197, looked up)
chain: T4 sequence (looked up)
notes: Harmonin-a1 (USH1C), human, residues 1-197 of UniProt Q9Y6N9-1; also called ^YFPNPDZ1; source: E. coli BL21 (DE3) Rosetta, purified (Glutathione Sepharose 4B, size-exclusion chromatography)

Key:
Settings in all cases: both partners purified
[1] = biological target: T1, YFP-FL-harmonin-ΔCter; test: MST; as a1 but 150 mM NaCl (for FL-Harmonin-a); YFP-fused partner constant at 100 nM, non-fluorescent protein titrated
[2] = biological target: T2, YFP-Myosin 7a MF2; test: MST; YFP-fused partner constant at 100 nM, non-fluorescent protein titrated (16 two-fold dilutions); 20 mM Hepes pH 7.0, 100 mM NaCl, 1 mM EGTA, 0.5 mM TCEP, 0.05% Tween 20; Monolith NT.115
[3] = biological target: T3, YFP-Myosin 7b MF2; test: as above
[4] = biological target: T4, Harmonin NPDZ1 (GST removed, as used in …); test: ITC; Microcal iTC200, 10 °C; 20 mM HEPES pH 7.0, 100 mM NaCl, 0.5 mM TCEP, 1 mM EGTA; single binding site model; GST removed from harmonin
[5] = biological target: T5, Myosin 7b MF2; test: as above
[6] = biological target: T6, Myosin 7a MF2; test: as above
[7] = biological target: T3, YFP-Myosin 7b MF2; test: MST; YFP-fused partner constant at 100 nM, non-fluorescent protein titrated (16 two-fold dilutions); 20 mM Hepes pH 7.0, 100 mM NaCl, 1 mM EGTA, 0.5 mM TCEP, 0.05% Tween 20; Monolith NT.115; remark: listed apart in the source
[8] = biological target: B1; test: as above

Binder: B1
- Kd [1]: 2000 nM
- Kd [2]: 1880 nM
- Kd [3]: 2790 ± 790 nM

Binder: B2
- Kd [4]: 10000 ± 3000 nM
- Kd [5]: 1400 ± 600 nM
- Kd [6]: 1000 nM

Binder: B3
- Kd [3]: > 100000 nM
- Kd [7]: 68000 nM

Binder: B4
- Kd [8]: 4200 nM

From PMC5493754, “Myosin 7 and its adaptors link cadherins to actin” (Nature Communications, 2017)
